According to US20080299638A1 (priority 2004, published 2008):

Tests used:
HBV-DNA in 2.2.15 cells = assay: HBV-DNA Southern blot in 2.2.15 cells; format: cell-based, hepatitis B virus
Protocol: Southern blot: Extraction of HBV-DNA from 2.2.15 cells: add drugs and incubate 2.2.15 cells for 8 days, remove medium and harvest cells, lyse cells with lysis solutions, extracts with equal volume phenol:chloroform:isopentanol twice, add absolute ethanol to precipitate nucleic acid, vacuum dry, re-dissolve in 20 μl TE buffer, add DNA sample buffer, put samples into agarose gel for electrophoresis. After electrophoresis, denature, neutralize and transfer to membrane. Oven dry, hybridize, expose with dot blotting the same time. Scan developed film with scanner, analyze relative density with gel-pro software, and calculate suppression rate and IC50.

2.2.15 cells = assay: Arginase toxicity to cells (CPE method, Reed-Muench); format: cell-based, human; conditions: 8 days drug addition
Protocol: Divide experiment into control group and test groups with different drug concentration. Digest cells, dilute to 200,000 cells/ml, transfer to culture plate, 100 μl per well for 96-well plate, incubate for 24 hours under 5% CO2 at 37° C., ready for experiment when cells grown into monolayer. […] Observe cytopathological changes, 8 days or 4 days under microscope, totally destroyed is 4; 75% destroyed is 3; 50% destroyed is 2, 25% destroyed is 1; no changes is 0. Calculate TC50 and TC0 according to Reed-Muench Method:
A=log>50% drug concentration; B=log<50% drug concentration; C=log times of dilution
Starting from 40 IU/ml and subsequently 20, 10, 5, 2.5 IU/ml, change drug solution every 4 days until 8 days, observe cytopathological changes under microscope, and check for CPE with microscope.

[1] = Arginase 2.5 μg/ml (unit as headed), batch 1, day 8
[2] = Arginase 2.5 μg/ml (unit as headed), batch 2, day 8
[3] = Arginase 5 μg/ml (unit as headed), batch 1, day 8
[4] = Arginase 5 μg/ml (unit as headed), batch 2, day 8
[5] = Arginase 10 μg/ml (unit as headed), batch 1, day 8
[6] = Arginase 10 μg/ml (unit as headed), batch 2, day 8
[7] = Arginase 20 μg/ml (unit as headed), batch 1, day 8
[8] = Arginase 20 μg/ml (unit as headed), batch 2, day 8

B1: Arginase: Pegylated recombinant human arginase (BCT-100); human arginase I with N-terminal six-histidine tag, SEQ ID NO: 3 (protein, listed as Homo sapiens)
chain: MHHHHHHMSAKSRTIGIIGAPFSKGQPRGGVEEGPTVLRKAGLLEKLKEQECDVKDYGDLPFADIPNDSPFQIVKNPRSVGKASEQLAGKVAQVKKNGRISLVLGGDHSLAIGSISGHARVHPDLGVIWVDAHTDINTPLTTTSGNLHGQPVSFLLKELKGKIPDVPGFSWVTPCISAKDIVYIGLRDVDPGEHYILKTLGIKYFSMTEVDRLGIGKVMEETLSYLLGRKKRPIHLSFDVDGLDPSFTPATGTPVVGGLTYREGLYITEEIYKTGLLSGLDIMEVNPSLGKTPEEVTRTVNTAVAITLACFGLAREGNHKPIDYLNPPK
modifications: PEGylated
With B1 the “Effect on HBV-DNA in cells (result in words)” value (HBV-DNA in 2.2.15 cells; 2.2.15 cells, 8 days) was “lowers”, the “HBV-DNA Southern Blot In Lane % Suppression” value (HBV-DNA in 2.2.15 cells; [1]) was 31.6525% and the “HBV-DNA Southern Blot Sum % Suppression” value (HBV-DNA in 2.2.15 cells; [1]) was 26.4131%. The “HBV-DNA Southern Blot Sum (IOD)” value (HBV-DNA in 2.2.15 cells; Arginase 2.5 μg/ml (unit as headed), batch 1, day 8, control 29421) was 21650 IOD, the “HBV-DNA Southern Blot In Lane (IOD)” value (HBV-DNA in 2.2.15 cells; Arginase 2.5 μg/ml (unit as headed), batch 1, day 8, control 42082) was 28762 IOD and the “HBV-DNA Southern Blot In Lane % Suppression” value (HBV-DNA in 2.2.15 cells; [2]) was 38.6255%. For the same molecule, the “HBV-DNA Southern Blot Sum % Suppression” value (HBV-DNA in 2.2.15 cells; [2]) was 0%, the “HBV-DNA Southern Blot Sum (IOD)” value (HBV-DNA in 2.2.15 cells; Arginase 2.5 μg/ml (unit as headed), batch 2, day 8, control 66143) was 68619 IOD and the “HBV-DNA Southern Blot In Lane (IOD)” value (HBV-DNA in 2.2.15 cells; Arginase 2.5 μg/ml (unit as headed), batch 2, day 8, control 76188) was 88350 IOD. The “HBV-DNA Southern Blot In Lane % Suppression” value (HBV-DNA in 2.2.15 cells; [3]) was 31.5717%, the “HBV-DNA Southern Blot Sum % Suppression” value (HBV-DNA in 2.2.15 cells; [3]) was 31.6679% and the “HBV-DNA Southern Blot Sum (IOD)” value (HBV-DNA in 2.2.15 cells; Arginase 5 μg/ml (unit as headed), batch 1, day 8, control 29421) was 20104 IOD. The “HBV-DNA Southern Blot In Lane (IOD)” value (HBV-DNA in 2.2.15 cells; Arginase 5 μg/ml (unit as headed), batch 1, day 8, control 42082) was 28796 IOD, the “HBV-DNA Southern Blot In Lane % Suppression” value (HBV-DNA in 2.2.15 cells; [4]) was 19.0752% and the “HBV-DNA Southern Blot Sum % Suppression” value (HBV-DNA in 2.2.15 cells; [4]) was 30.0259%. For the same molecule, the “HBV-DNA Southern Blot Sum (IOD)” value (HBV-DNA in 2.2.15 cells; Arginase 5 μg/ml (unit as headed), batch 2, day 8, control 66143) was 46283 IOD, the “HBV-DNA Southern Blot In Lane (IOD)” value (HBV-DNA in 2.2.15 cells; Arginase 5 μg/ml (unit as headed), batch 2, day 8, control 76188) was 61655 IOD and the “HBV-DNA Southern Blot In Lane % Suppression” value (HBV-DNA in 2.2.15 cells; [5]) was 22.7722%. For the same molecule, the “HBV-DNA Southern Blot Sum % Suppression” value (HBV-DNA in 2.2.15 cells; [5]) was 17.6303%, the “HBV-DNA Southern Blot Sum (IOD)” value (HBV-DNA in 2.2.15 cells; Arginase 10 μg/ml (unit as headed), batch 1, day 8, control 29421) was 24234 IOD and the “HBV-DNA Southern Blot In Lane (IOD)” value (HBV-DNA in 2.2.15 cells; Arginase 10 μg/ml (unit as headed), batch 1, day 8, control 42082) was 32499 IOD. For the same molecule, the “HBV-DNA Southern Blot In Lane % Suppression” value (HBV-DNA in 2.2.15 cells; [6]) was 13.0559%, the “HBV-DNA Southern Blot Sum % Suppression” value (HBV-DNA in 2.2.15 cells; [6]) was 29.1172% and the “HBV-DNA Southern Blot Sum (IOD)” value (HBV-DNA in 2.2.15 cells; Arginase 10 μg/ml (unit as headed), batch 2, day 8, control 66143) was 46884 IOD. For the same molecule, the “HBV-DNA Southern Blot In Lane (IOD)” value (HBV-DNA in 2.2.15 cells; Arginase 10 μg/ml (unit as headed), batch 2, day 8, control 76188) was 66241 IOD, the “HBV-DNA Southern Blot In Lane % Suppression” value (HBV-DNA in 2.2.15 cells; [7]) was 25.2982% and the “HBV-DNA Southern Blot Sum % Suppression” value (HBV-DNA in 2.2.15 cells; [7]) was 14.9893%. The “HBV-DNA Southern Blot Sum (IOD)” value (HBV-DNA in 2.2.15 cells; Arginase 20 μg/ml (unit as headed), batch 1, day 8, control 29421) was 25011 IOD, the “HBV-DNA Southern Blot In Lane (IOD)” value (HBV-DNA in 2.2.15 cells; Arginase 20 μg/ml (unit as headed), batch 1, day 8, control 42082) was 31436 IOD and the “HBV-DNA Southern Blot In Lane % Suppression” value (HBV-DNA in 2.2.15 cells; [8]) was 38.6255%. For the same molecule, the “HBV-DNA Southern Blot Sum % Suppression” value (HBV-DNA in 2.2.15 cells; [8]) was 47.9416%, the “HBV-DNA Southern Blot Sum (IOD)” value (HBV-DNA in 2.2.15 cells; Arginase 20 μg/ml (unit as headed), batch 2, day 8, control 66143) was 34433 IOD and the “HBV-DNA Southern Blot In Lane (IOD)” value (HBV-DNA in 2.2.15 cells; Arginase 20 μg/ml (unit as headed), batch 2, day 8, control 76188) was 46760 IOD. The “HBV-DNA Southern Blot Sum IC50” value (HBV-DNA in 2.2.15 cells; batch 1, 8 days) was 25.42 IU/ml, the “HBV-DNA Southern Blot In Lane IC50” value (HBV-DNA in 2.2.15 cells; batch 1, day 8) was 21.45 IU/ml and the “HBV-DNA Southern Blot Sum IC50” value (HBV-DNA in 2.2.15 cells; batch 2, 8 days) was 14.17 IU/ml. For the same molecule, the “HBV-DNA Southern Blot In Lane IC50” value (HBV-DNA in 2.2.15 cells; batch 2, day 8) was 18.67 IU/ml, the “HBV-DNA Southern Blot Sum IC50” value (HBV-DNA in 2.2.15 cells; two batches average, 8 days) was 19.79±7.95 IU/ml and the “HBV-DNA Southern Blot In Lane IC50” value (HBV-DNA in 2.2.15 cells; two batches average, day 8) was 20.06±1.96 IU/ml. It also gave a TC50 (2.2.15 cells) of 40 IU/ml.
